Laboratory results reported in the supplement of paper PMC5998384.

Experiments:
HeLa Kyoto [1] = experiment: solubility in G1/S (NP-40 vs SDS abundance) (log2 ratio); higher = more soluble; conditions: cell cycle stage: G1/S
HeLa Kyoto [2] = experiment: solubility change mitosis vs G1/S (difference of NP-40 vs SDS log2 ratios) (log2 ratio difference); higher = more soluble in mitosis
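Wherever solubility change mitosis vs G1/S (difference of NP-40 vs SDS log2 ratios) is given: synchronized HeLa Kyoto cells (double thymidine block for G1/S, nocodazole release for mitosis), protein amounts in NP-40 versus SDS lysates quantified by mass spectrometry, three biological replicates.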
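Wherever solubility in G1/S (NP-40 vs SDS abundance) is given: HeLa Kyoto cells arrested at G1/S by double thymidine block, proteins quantified by TMT10plex mass spectrometry in mild NP-40 versus SDS extracts, three biological replicates.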

Sequence of MAFK (chain, as listed by the source): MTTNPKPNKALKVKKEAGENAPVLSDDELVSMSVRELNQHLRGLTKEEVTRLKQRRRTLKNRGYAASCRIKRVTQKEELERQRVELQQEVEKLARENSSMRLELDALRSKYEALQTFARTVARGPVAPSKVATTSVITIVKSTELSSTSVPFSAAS

| Substance | solubility in G1/S (log2) (HeLa Kyoto [1]) | solubility change mitosis (log2) (HeLa Kyoto [2]) |
| --- | --- | --- |
| MAEPVQEELSVLAAIFCRPHEWEVLSRSETDGTVFRIHTKAEGFMDVDIPLELVFHLPVNYPSCLPGISINSEQLTRAQCVTVKENLLEQAESLLSEPMVHELVLWIQQNLRHILSQPETGSGSEKCTFSTSTTMDDGLWITLLHLDHMRAKTKYVKIVEKWASDLRLTGRLMFMGKIILILLQGDRNNLKEYLILQKTSKVDVDSSGKKCKEKMISVLFETKVQTEHKRFLAFEVKEYSALDELQKEFETAGLKKLFSEFVLALVK [RWDD3] | 0.101 | -0.0953 |
| MAFGKSHRDPYATSVGHLIEKATFAGVQTEDWGQFMHICDIINTTQDGPKDAVKALKKRISKNYNHKEIQLTLSLIDMCVQNCGPSFQSLIVKKEFVKENLVKLLNPRYNLPLDIQNRILNFIKTWSQGFPGGVDVSEVKEVYLDLVKKGVQFPPSEAEAETARQETAQISSNPPTSVPTAPALSSVIAPKNSTVTLVPEQIGKLHSELDMVKMNVRVMSAILMENTPGSENHEDIELLQKLYKTGREMQERIMDLLVVVENEDVTVELIQVNEDLNNAILGYERFTRNQQRILEQNKNQKEATNTTSEPSAPSQDLLDLSPSPRMPRATLGELNTMNNQLSGLNFSLPSSDVTNNLKPSLHPQMNLLALENTEIPPFAQRTSQNLTSSHAYDNFLEHSNSVFLQPVSLQTIAAAPSNQSLPPLPSNHPAMTKSDLQPPNYYEVMEFDPLAPAVTTEAIYEEIDAHQHKGAQNDGD [TOM1L1] | 0.297 | -0.0535 |
| MAFK | 0.335 | 0.364 |
| MAGGRCGPQLTALLAAWIAAVAATAGPEEAALPPEQSRVQPMTASNWTLVMEGEWMLKFYAPWCPSCQQTDSEWEAFAKNGEILQISVGKVDVIQEPGLSGRFFVTTLPAFFHAKDGIFRRYRGPGIFEDLQNYILEKKWQSVEPLTGWKSPASLTMSGMAGLFSISGKIWHLHNYFTVTLGIPAWCSYVFFVIATLVFGLFMGLVLVVISECFYVPLPRHLSERSEQNRRSEEAHRAEQLQDAEEEKDDSNEEENKDSLVDDEEEKEDLGDEDEAEEEEEEDNLAAGVDEERSEANDQGPPGEDGVTREEVEPEEAEEGISEQPCPADTEVVEDSLRQRKSQHADKGL [TMX4] | 0.144 | -0.172 |
| MAGLGLGSAVPVWLAEDDLGCIICQGLLDWPATLPCGHSFCRHCLEALWGARDARRWACPTCRQGAAQQPHLRKNTLLQDLADKYRRAAREIQAGSDPAHCPCPGSSSLSSAAARPRRRPELQRVAVEKSITEVAQELTELVEHLVDIVRSLQNQRPLSESGPDNELSILGKAFSSGVDLSMASPKLVTSDTAAGKIRDILHDLEEIQEKLQESVTWKEAPEAQMQGELLEAPSSSSCPLPDQSHPALRRASRFAQWAIHPTFNLKSLSCSLEVSKDSRTVTVSHRPQPYRWSCERFSTSQVLCSQALSSGKHYWEVDTRNCSHWAVGVASWEMSRDQVLGRTMDSCCVEWKGTSQLSAWHMVKETVLGSDRPGVVGIWLNLEEGKLAFYSVDNQEKLLYECTISASSPLYPAFWLYGLHPGNYLIIKQVKV [RNF135] | 0.0392 | -0.147 |
| MAGLTLFVGRLPPSARSEQLEELFSQVGPVKQCFVVTEKGSKACRGFGYVTFSMLEDVQRALKEITTFEGCKINVTVAKKKLRNKTKEKGKNENSECPKKEPKAKKAKVADKKARLIIRNLSFKCSEDDLKTVFAQFGAVLEVNIPRKPDGKMRGFGFVQFKNLLEAGKALKGMNMKEIKGRTVAVDWAVAKDKYKDTQSVSAIGEEKSHESKHQESVKKKGREEEDMEEEENDDDDDDDDEEDGVFDDEDEEEENIESKVTKPVQIQKRAVKRPAPAKSSDHSEEDSDLEESDSIDDGEELAQSDTSTEEQEDKAVQVSNKKKRKLPSDVNEGKTVFIRNLSFDSEEEELGELLQQFGELKYVRIVLHPDTEHSKGCAFAQFMTQEAAQKCLLAASPENEAGGLKLDGRQLKVDLAVTRDEAAKLQTTKVKKPTGTRNLYLAREGLIRAGTKAAEGVSAADMAKRERFELLKHQKLKDQNIFVSRTRLCLHNLPKAVDDKQLRKLLLSATSGEKGVRIKECRVMRDLKGVHGNMKGQSLGYAFAEFQEHEHALKALRLINNNPEIFGPLKRPIVEFSLEDRRKLKMKELRIQRSLQKMRSKPATGEPQKGQPEPAKDQQQKAAQHHTEEQSKVPPEQKRKAGSTSWTGFQTKAEVEQVELPDGKKRRKVLALPSHRGPKIRLRDKGKVKPVHPKKPKPQINQWKQEKQQLSSEQVSRKKAKGNKTETRFNQLVEQYKQKLLGPSKGAPLAKRSKWFDS [RBM28] | -2.35 | 1.56 |
| MAGNFWQSSHYLQWILDKQDLLKERQKDLKFLSEEEYWKLQIFFTNVIQALGEHLKLRQQVIATATVYFKRFYARYSLKSIDPVLMAPTCVFLASKVEEFGVVSNTRLIAAATSVLKTRFSYAFPKEFPYRMNHILECEFYLLELMDCCLIVYHPYRPLLQYVQDMGQEDMLLPLAWRIVNDTYRTDLCLLYPPFMIALACLHVACVVQQKDARQWFAELSVDMEKILEIIRVILKLYEQWKNFDERKEMATILSKMPKPKPPPNSEGEQGPNGSQNSSYSQS [CCNC] | -0.272 | -0.0468 |
| MAGPPALPPPETAAAATTAAAASSSAASPHYQEWILDTIDSLRSRKARPDLERICRMVRRRHGPEPERTRAELEKLIQQRAVLRVSYKGSISYRNAARVQPPRRGATPPAPPRAPRGAPAAAAAAAPPPTPAPPPPPAPVAAAAPARAPRAAAAAATAPPSPGPAQPGPRAQRAAPLAAPPPAPAAPPAVAPPAGPRRAPPPAVAAREPPLPPPPQPPAPPQQQQPPPPQPQPPPEGGAVRAGGAARPVSLREVVRYLGGSGGAGGRLTRGRVQGLLEEEAAARGRLERTRLGALALPRGDRPGRAPPAASARPSRSKRGGEERVLEKEEEEDDDEDEDEEDDVSEGSEVPESDRPAGAQHHQLNGERGPQSAKERVKEWTPCGPHQGQDEGRGPAPGSGTRQVFSMAAMNKEGGTASVATGPDSPSPVPLPPGKPALPGADGTPFGCPPGRKEKPSDPVEWTVMDVVEYFTEAGFPEQATAFQEQEIDGKSLLLMQRTDVLTGLSIRLGPALKIYEHHIKVLQQGHFEDDDPDGFLG [SAMD1] | -0.144 | 0.323 |
| MAGRGSLVSWRAFHGCDSAEELPRVSPRFLRAWHPPPVSARMPTRRWAPGTQCITKCEHTRPKPGELAFRKGDVVTILEACENKSWYRVKHHTSGQEGLLAAGALREREALSADPKLSLMPWFHGKISGQEAVQQLQPPEDGLFLVRESARHPGDYVLCVSFGRDVIHYRVLHRDGHLTIDEAVFFCNLMDMVEHYSKDKGAICTKLVRPKRKHGTKSAEEELARAGWLLNLQHLTLGAQIGEGEFGAVLQGEYLGQKVAVKNIKCDVTAQAFLDETAVMTKMQHENLVRLLGVILHQGLYIVMEHVSKGNLVNFLRTRGRALVNTAQLLQFSLHVAEGMEYLESKKLVHRDLAARNILVSEDLVAKVSDFGLAKAERKGLDSSRLPVKWTAPEALKHGKFTSKSDVWSFGVLLWEVFSYGRAPYPKMSLKEVSEAVEKGYRMEPPEGCPGPVHVLMSSCWEAEPARRPPFRKLAEKLARELRSAGAPASVSGQDADGSTSPRSQEP [MATK] | -0.238 | 0.257 |
| MAGTALKRLMAEYKQLTLNPPEGIVAGPMNEENFFEWEALIMGPEDTCFEFGVFPAILSFPLDYPLSPPKMRFTCEMFHPNIYPDGRVCISILHAPGDDPMGYESSAERWSPVQSVEKILLSVVSMLAEPNDESGANVDASKMWRDDREQFYKIAKQIVQKSLGL [UBE2G2] | 0.6 | 0.17 |
| MALDPADQHLRHVEKDVLIPKIMREKAKERCSEQVQDFTKCCKNSGVLMVVKCRKENSALKECLTAYYNDPAFYEECKMEYLKEREEFRKTGIPTKKRLQKLPTSM [CMC1] | -0.253 | 0.26 |
| MALKAEGAALDCFEVTLKCEEGEDEEEAMVVAVIPRPEPMLRVTQQEKTPPPRPSPLEAGSDGCEEPKQQVSWEQEFLVGSSPGGSGRALCMVCGAEIRAPSADTARSHILEQHPHTLDLSPSEKSNILEAWSEGVALLQDVRAEQPSPPNSDSGQDAHPDPDANPDAARMPAEIVVLLDSEDNPSLPKRSRPRGLRPLELPAVPATEPGNKKPRGQRWKEPPGEEPVRKKRGRPMTKNLDPDPEPPSPDSPTETFAAPAEVRHFTDGSFPAGFVLQLFSHTQLRGPDSKDSPKDREVAEGGLPRAESPSPAPPPGLRGTLDLQVIRVRMEEPPAVSLLQDWSRHPQGTKRVGAGDTSDWPTVLSESSTTVAGKPEKGNGV [C11ORF84] | 0.38 | 0.023 |
| MALLSRPALTLLLLLMAAVVRCQEQAQTTDWRATLKTIRNGVHKIDTYLNAALDLLGGEDGLCQYKCSDGSKPFPRYGYKPSPPNGCGSPLFGVHLNIGIPSLTKCCNQHDRCYETCGKSKNDCDEEFQYCLSKICRDVQKTLGLTQHVQACETTVELLFDSVIHLGCKPYLDSQRAACRCHYEEKTDL [PLA2G12A] | -0.604 | 0.347 |
| MALVRALVCCLLTAWHCRSGLGLPVAPAGGRNPPPAIGQFWHVTDLHLDPTYHITDDHTKVCASSKGANASNPGPFGDVLCDSPYQLILSAFDFIKNSGQEASFMIWTGDSPPHVPVPELSTDTVINVITNMTTTIQSLFPNLQVFPALGNHDYWPQDQLPVVTSKVYNAVANLWKPWLDEEAISTLRKGGFYSQKVTTNPNLRIISLNTNLYYGPNIMTLNKTDPANQFEWLESTLNNSQQNKEKVYIIAHVPVGYLPSSQNITAMREYYNEKLIDIFQKYSDVIAGQFYGHTHRDSIMVLSDKKGSPVNSLFVAPAVTPVKSVLEKQTNNPGIRLFQYDPRDYKLLDMLQYYLNLTEANLKGESIWKLEYILTQTYDIEDLQPESLYGLAKQFTILDSKQFIKYYNYFFVSYDSSVTCDKTCKAFQICAIMNLDNISYADCLKQLYIKHNY [SMPDL3A] | 0.322 | 0.18 |
| MALVTVSRSPPGSGASTPVGPWDQAVQRRSRLQRRQSFAVLRGAVLGLQDGGDNDDAAEASSEPTEKAPSEEELHGDQTDFGQGSQSPQKQEEQRQHLHLMVQLLRPQDDIRLAAQLEAPRPPRLRYLLVVSTREGEGLSQDETVLLGVDFPDSSSPSCTLGLVLPLWSDTQVYLDGDGGFSVTSGGQSRIFKPISIQTMWATLQVLHQACEAALGSGLVPGGSALTWASHYQERLNSEQSCLNEWTAMADLESLRPPSAEPGGSSEQEQMEQAIRAELWKVLDVSDLESVTSKEIRQALELRLGLPLQQYRDFIDNQMLLLVAQRDRASRIFPHLYLGSEWNAANLEELQRNRVTHILNMAREIDNFYPERFTYHNVRLWDEESAQLLPHWKETHRFIEAARAQGTHVLVHCKMGVSRSAATVLAYAMKQYECSLEQALRHVQELRPIARPNPGFLRQLQIYQGILTASRQSHVWEQKVGGVSPEEHPAPEVSTPFPPLPPEPEGGGEEKVVGMEESQAAPKEEPGPRPRINLRGVMRSISLLEPSLELESTSETSDMPEVFSSHESSHEEPLQPFPQLARTKGGQQVDRGPQPALKSRQSVVTLQGSAVVANRTQAFQEQEQGQGQGQGEPCISSTPRFRKVVRQASVHDSGEEGEA [SSH3] | 0.212 | -0.161 |
